According to US20250171536A1 (CSL INNOVATION, published 2025):

T1: Murine CD117, soluble (MuCD117 1-527) (mouse, UniProt P05532 25-527)
T1 construct: Residues as printed
T1 sequence: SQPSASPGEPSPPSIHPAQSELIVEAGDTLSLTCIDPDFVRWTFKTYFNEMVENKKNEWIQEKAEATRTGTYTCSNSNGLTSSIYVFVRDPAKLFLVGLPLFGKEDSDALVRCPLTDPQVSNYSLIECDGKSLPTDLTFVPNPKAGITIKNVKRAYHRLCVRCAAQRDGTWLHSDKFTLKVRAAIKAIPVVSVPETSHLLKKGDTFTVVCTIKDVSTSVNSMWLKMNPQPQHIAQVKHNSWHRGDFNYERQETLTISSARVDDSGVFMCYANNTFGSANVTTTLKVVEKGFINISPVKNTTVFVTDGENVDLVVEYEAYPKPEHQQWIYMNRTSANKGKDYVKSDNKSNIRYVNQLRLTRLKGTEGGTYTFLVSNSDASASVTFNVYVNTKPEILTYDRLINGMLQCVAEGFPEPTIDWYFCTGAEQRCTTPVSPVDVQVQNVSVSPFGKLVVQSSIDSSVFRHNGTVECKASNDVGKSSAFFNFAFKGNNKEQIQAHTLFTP

T2: Cyno CD117, soluble (cynoCD117 1-520) (cynomolgus monkey, UniProt P10721 26-520 (human entry))
T2 construct: Residues as printed
T2 chain: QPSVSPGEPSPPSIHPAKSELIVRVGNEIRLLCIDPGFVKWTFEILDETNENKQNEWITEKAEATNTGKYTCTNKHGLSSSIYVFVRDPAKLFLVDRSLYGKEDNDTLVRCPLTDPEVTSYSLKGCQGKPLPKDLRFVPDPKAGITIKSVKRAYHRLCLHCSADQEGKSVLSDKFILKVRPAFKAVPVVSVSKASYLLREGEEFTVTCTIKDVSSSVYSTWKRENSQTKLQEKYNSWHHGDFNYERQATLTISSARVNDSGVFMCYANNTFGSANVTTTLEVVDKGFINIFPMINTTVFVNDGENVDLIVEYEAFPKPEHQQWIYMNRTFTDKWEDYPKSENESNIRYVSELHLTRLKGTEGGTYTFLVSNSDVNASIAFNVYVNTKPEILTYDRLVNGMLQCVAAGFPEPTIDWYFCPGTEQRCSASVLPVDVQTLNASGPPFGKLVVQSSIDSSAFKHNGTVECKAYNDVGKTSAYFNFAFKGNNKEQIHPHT

T3: Cynomolgus monkey CD117, expressed on HEK293FS cells (cynomolgus monkey, UniProt P10721 26-976 (human entry))
T3 construct: The construct transfected is not further described; also called cyno CD117
T3 chain: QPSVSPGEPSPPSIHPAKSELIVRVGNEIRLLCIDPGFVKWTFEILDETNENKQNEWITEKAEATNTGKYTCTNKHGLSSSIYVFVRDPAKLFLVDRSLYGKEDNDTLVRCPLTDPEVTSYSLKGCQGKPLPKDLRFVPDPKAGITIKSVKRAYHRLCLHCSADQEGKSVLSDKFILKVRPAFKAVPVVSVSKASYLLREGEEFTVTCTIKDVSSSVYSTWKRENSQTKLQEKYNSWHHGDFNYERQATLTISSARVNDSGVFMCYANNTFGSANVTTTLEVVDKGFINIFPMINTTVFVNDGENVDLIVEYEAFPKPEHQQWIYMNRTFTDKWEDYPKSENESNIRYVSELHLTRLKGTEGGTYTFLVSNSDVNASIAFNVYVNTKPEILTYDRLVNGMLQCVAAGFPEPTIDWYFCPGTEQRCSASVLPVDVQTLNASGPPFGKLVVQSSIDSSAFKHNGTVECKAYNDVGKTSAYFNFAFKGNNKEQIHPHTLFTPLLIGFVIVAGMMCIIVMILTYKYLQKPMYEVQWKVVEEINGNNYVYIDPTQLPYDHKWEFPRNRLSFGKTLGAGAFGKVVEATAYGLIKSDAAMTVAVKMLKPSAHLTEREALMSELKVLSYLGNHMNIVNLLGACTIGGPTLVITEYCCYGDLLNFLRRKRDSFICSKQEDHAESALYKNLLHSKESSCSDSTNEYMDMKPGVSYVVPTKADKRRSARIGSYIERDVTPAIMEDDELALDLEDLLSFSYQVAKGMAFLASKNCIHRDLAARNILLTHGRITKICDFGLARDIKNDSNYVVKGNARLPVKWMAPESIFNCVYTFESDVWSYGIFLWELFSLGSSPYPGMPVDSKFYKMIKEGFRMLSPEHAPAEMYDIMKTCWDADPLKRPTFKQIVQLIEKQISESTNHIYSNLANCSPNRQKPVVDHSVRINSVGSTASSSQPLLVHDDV

B1: hu3C2 IgG1 (hu3C2-hLG1) (antibody)
heavy: not shown
light: SYELTQDPAVSVALGQTVRITCQGDSLRDYYANWFQQKPGQAPLLVIFYDSDRPSGIPERFSGSNSGNTATLTISRVEAGDEADYYCQAWDSSSDHWVFGGGTKLTVLGQPKAAPSVTLFPPSSEELQANKATLVCLISDFYPGAVTVAWKADGSPVKAGVETTKPSKQSNNKYAASSYLSLTPEQWKSHRSYSCQVTHEGSTVEKTVAPTECS
notes: Human IgG1, lambda
B2: hu3B2 IgG1 (hu3B2-hLG1) (antibody)
heavy: not shown
light: SYELTQPPSVSVSPGQTATITCSGDKLGETYVHWYQHQSGQSPILVVYQDFKRPSGIPERFSGSNSGNTATLTISGTQAMDEADYYCQAWDSSTAVFGGGTKLTVLGQPKAAPSVTLFPPSSEELQANKATLVCLISDFYPGAVTVAWKADGSPVKAGVETTKPSKQSNNKYAASSYLSLTPEQWKSHRSYSCQVTHEGSTVEKTVAPTECS
notes: Human IgG1, lambda
B3: hu3B2 IgA2 (hu3B2-hLhA2 (P221R)) (antibody)
heavy: QVQLQESGPGLVKPSETLSLTCTVSGYSISSGYYWGWIRQPPGKGLEWIGSIYHSGSTYYNPSLKSRVTISVDTSKNQFSLKLSSVTAADTAVYYCARVGVRYFDWLLYGAFDIWGQGTMVTVSSASPTSPKVFPLSLDSTPQDGNVVVACLVQGFFPQEPLSVTWSESGQNVTARNFPPSQDASGDLYTTSSQLTLPATQCPDGKSVTCHVKHYTNSSQDVTVPCRVPPPPPCCHPRLSLHRPALEDLLLGSEANLTCTLTGLRDASGATFTWTPSSGKSAVQGPPERDLCGCYSVSSVLPGCAQPWNHGETFTCTAAHPELKTPLTANITKSGNTFRPEVHLLPPPSEELALNELVTLTCLARGFSPKDVLVRWLQGSQELPREKYLTWASRQEPSQGTTTFAVTSILRVAAEDWKKGDTFSCMVGHEALPLAFTQKTIDRLAGKPTHVNVSVVMAEVDGTCY
light: B2 light
B4: hu3B3 IgG1 (hu3B3-hLG1) (antibody)
heavy: not shown
light: SYELTQPPSVSVSPGQTASITCSGDKVGAKYVFWYQQKPGQSPVLVVYQDNKRPSGIPERFSGSNSGNTATLTISGTQAMDEADYYCQAWDSSTALYVFGTGTKVTVLGQPKANPTVTLFPPSSEELQANKATLVCLISDFYPGAVTVAWKADGSPVKAGVETTKPSKQSNNKYAASSYLSLTPEQWKSHRSYSCQVTHEGSTVEKTVAPTECS
notes: Human IgG1, lambda
B5: hu4A2 IgG1 (hu4A2-hKG1) (antibody)
heavy: not shown
light: EIVLTQSPGTLSLSPGKRATLSCRASQSVSNSYLAWYQQKPGQPPKLLIYWASTRESGVPDRFSGSGSGTDFTLTISSLQAEDVAVYYCQQYYSTPLTFGGGTKVEIKRTVAAPSVFIFPPSDEQLKSGTASVVCLLNNFYPREAKVQWKVDNALQSGNSQESVTEQDSKDSTYSLSSTLTLSKADYEKHKVYACEVTHQGLSSPVTKSFNRGEC
notes: Human IgG1, kappa; also called hu4Aa
B6: hu4A2 IgA2 (hu4A2-hKhA2 (P221R)) (antibody)
heavy: EVQLLESGGGLVQPGGSLRLSCAASGFTFSDYGMSWVRQAPGKGLEWVSAIGYGGGGKYYADSVKGRFTISRDNSKNTLYLQMNSLRAEDTAVYYCAKDTWWLAGLFDYWGQGTLVTVSSASPTSPKVFPLSLDSTPQDGNVVVACLVQGFFPQEPLSVTWSESGQNVTARNFPPSQDASGDLYTTSSQLTLPATQCPDGKSVTCHVKHYTNSSQDVTVPCRVPPPPPCCHPRLSLHRPALEDLLLGSEANLTCTLTGLRDASGATFTWTPSSGKSAVQGPPERDLCGCYSVSSVLPGCAQPWNHGETFTCTAAHPELKTPLTANITKSGNTFRPEVHLLPPPSEELALNELVTLTCLARGFSPKDVLVRWLQGSQELPREKYLTWASRQEPSQGTTTFAVTSILRVAAEDWKKGDTFSCMVGHEALPLAFTQKTIDRLAGKPTHVNVSVVMAEVDGTCY
light: B5 light

Legend:
[1] = molecular target: T4, Human CD117 (c-kit), cell-surface expressed (human, UniProt P10721 26-976); experiment: flow cytometry on HEK293FS cells expressing human CD117, IgG1 format, signal of parental cells subtracted
T4 construct: also called hCD117; SCFR
Experimental: (§1) After a one hour incubation on ice, cells were washed once prior to fixation.
(§2) Mean fluorescence intensities (MFI) were obtained using Flowjo v10 and analysed using GraphPad Prism. Total binding curves for TF-1 cells and specific binding curves for HEK293FS expressing CD117 (generated by subtracting non-specific binding to parental cells) were plotted. EC50 values for each anti-CD117-IgG1 antibody tested was determined using a non-linear regression model.

[2] = molecular target: T1, Murine CD117, soluble (MuCD117 1-527); experiment: SPR, captured antibody, soluble CD117 analyte
Experimental: (§3) Biacore 4000 was used for all binding analyses. Experiments were performed at pH 7.3, 37° C. and under flow rate of 30 μL/min. Human anti-CD117 antibodies were surface captured using either polyclonal goat anti-human IgG or IgA antibodies directly immobilised onto the carboxymethyl dextran surface of CM5 sensorchips to approximately 13,000 RU using standard NHS/EDC chemistry at pH 5. The immobilised antibody surface was pre-conditioned with ten injections of human polyclonal IgG (Privigen 60s, 10 μg/mL) each followed by a regeneration cycle with 100 mM H3PO4.
(§4) A total of 18 anti-CD117 antibodies (2 μg/mL) were tested as captured ligands against four soluble mammalian CD117 receptor variants: the N-terminal domain of human CD117 (HuCD1₁₇₁₋₃₀₈), full length human CD117 (HuCD1₁₇₁₋₅₂₄), cyno CD117 (cynoCD117₁₋₅₂₀), and murine CD117 (MuCD117₁₋₅₂₇).
(§5) CD117 proteins were prepared in two-fold dilutions ranging from 0.8 to 200 nM. Anti-CD117 antibodies huAb249, huAb85, huCK6 and huhzSR1 were used as positive controls. BM4 was prepared in an IgG and IgA2 format and used as negative control. Binding affinities were calculated from sensorgrams double-referenced using reference surface and blank buffer injection data gathered within each experiment.

[3] = molecular target: T2, Cyno CD117, soluble (cynoCD117 1-520); experiment: SPR Biacore 4000, captured antibody, soluble CD117 analyte, 1:1 fit;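 further: antibodies captured on CM5 chips via goat anti-human IgG or IgA, CD117 analyte in two-fold series 0.8–200 nM, run at pH 7.3 and 37 °C, double-referenced sensorgrams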
Experimental: as §3, §4, §5

[4] = molecular target: T5, Full length human CD117, soluble (HuCD117 1-524) (human, UniProt P10721 26-524); experiment: as above
T5 construct: also called full-length protein
T5 sequence (P10721 26-524): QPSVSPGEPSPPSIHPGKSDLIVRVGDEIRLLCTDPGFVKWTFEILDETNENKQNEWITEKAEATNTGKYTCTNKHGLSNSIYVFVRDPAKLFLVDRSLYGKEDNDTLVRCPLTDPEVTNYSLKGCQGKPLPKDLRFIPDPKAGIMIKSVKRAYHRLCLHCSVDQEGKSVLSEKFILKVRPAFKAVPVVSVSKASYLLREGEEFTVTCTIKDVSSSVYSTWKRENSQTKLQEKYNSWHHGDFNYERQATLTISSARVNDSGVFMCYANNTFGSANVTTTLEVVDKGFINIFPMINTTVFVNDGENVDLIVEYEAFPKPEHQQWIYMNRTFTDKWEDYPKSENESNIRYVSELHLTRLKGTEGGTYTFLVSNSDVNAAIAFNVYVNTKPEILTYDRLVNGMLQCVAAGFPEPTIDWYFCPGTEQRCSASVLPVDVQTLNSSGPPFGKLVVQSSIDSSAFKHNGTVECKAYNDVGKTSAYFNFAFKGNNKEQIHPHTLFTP
Experimental: as §3, §4, §5

[5] = molecular target: N-terminal domain of human CD117, soluble (HuCD117 1-308) (human, UniProt P10721 26-308); experiment: as above
Chain of N-terminal domain of human CD117, soluble (HuCD117 1-308) (P10721 26-308): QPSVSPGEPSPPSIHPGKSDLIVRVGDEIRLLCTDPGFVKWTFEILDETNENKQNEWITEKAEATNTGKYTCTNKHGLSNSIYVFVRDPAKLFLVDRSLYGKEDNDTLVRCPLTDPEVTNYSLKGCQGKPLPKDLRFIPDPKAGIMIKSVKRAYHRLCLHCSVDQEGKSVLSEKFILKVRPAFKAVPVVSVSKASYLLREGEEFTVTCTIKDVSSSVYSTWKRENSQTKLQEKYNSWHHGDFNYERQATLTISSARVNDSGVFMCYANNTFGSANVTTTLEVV
Experimental: as §3, §4, §5

[6] = molecular target: T4, Human CD117 (c-kit), cell-surface …; experiment: flow cytometry on TF-1 cells, IgG1 format, anti-human IgG Fab-AF488, total binding
Experimental: as §1, §2

[7] = molecular target: T3, Cynomolgus monkey CD117, expressed on …; experiment: flow cytometry on HEK293FS cells expressing cynomolgus CD117, IgG1 format, signal of parental cells subtracted
Experimental: as §1, §2

[8] = molecular target: T1, Murine CD117, soluble (MuCD117 1-527); experiment: SPR Biacore 4000, captured antibody, soluble CD117 analyte
Experimental: as §3, §4, §5

[9] = molecular target: T6, Mouse CD117, expressed on HEK293FS cells (mouse, UniProt P05532 25-979); experiment: flow cytometry on HEK293FS cells expressing mouse CD117, IgG1 format, signal of parental cells subtracted
T6 construct: The construct transfected is not further described; also called murine CD117
Experimental: as §1, §2

[10] = molecular target: T3, Cynomolgus monkey CD117, expressed on …; experiment: flow cytometry on HEK293FS cells expressing cynomolgus CD117, IgG1 format, signal of parental cells subtracted [F]
Experimental: as §1, §2

[11] = molecular target: T2, Cyno CD117, soluble (cynoCD117 1-520); experiment: SPR Biacore 4000, captured antibody, soluble CD117 analyte
Experimental: as §3, §4, §5

[12] = molecular target: T5, Full length human CD117, soluble …; experiment: as above
Experimental: as §3, §4, §5

Row | Binder | EC50 (read off the curve) [1] | binding result [2] | Kd [3] | Kd [4] | Kd [5] | EC50 (read off the curve) [6] | EC50 (read off the curve) [7] | Kd [8] | EC50 (read off the curve) [9] | binding result [10] | fold gain in affinity (IgA2 backbone vs IgG1 or IgG4) [11] | fold gain in affinity (IgA2 backbone vs IgG1 or IgG4) [12]
1 | B1 | ~0.4 nM | no binding (tested: 200 nM (highest CD117 concentration)) | 33.7 nM | 14.4 nM | 4.14 nM | ~0.2 nM | ~0.3 nM |  |  |  |  | 
2 | B2 |  |  | 58.7 nM | 54.6 nM |  |  |  | > 1000 nM | ~0.3 nM |  |  | 
3 | B3 |  |  | 39.9 nM | 35.9 nM |  |  |  | > 1000 nM |  |  |  | 
4 | B4 |  | no binding (tested: 200 nM (highest CD117 concentration)) | 5.7 nM | 4.2 nM | 1.07 nM | ~0.04 nM |  |  |  | binds |  | 
5 | B5 | ~0.5 nM |  | 34.6 nM | 32.4 nM | 14.4 nM | ~0.2 nM | ~0.3 nM |  |  |  |  | 
6 | B6 |  |  | 3 nM | 18.6 nM | 8.61 nM |  |  |  |  |  | ~10 fold | ~2 fold
